How the values were obtained:
[1] = target: T1, human αvβ6 on 293F:huβ6 cells (human, UniProt P06756 31-1048; P18564 22-788); assay: competition binding on 293F cells
T1 chain 1: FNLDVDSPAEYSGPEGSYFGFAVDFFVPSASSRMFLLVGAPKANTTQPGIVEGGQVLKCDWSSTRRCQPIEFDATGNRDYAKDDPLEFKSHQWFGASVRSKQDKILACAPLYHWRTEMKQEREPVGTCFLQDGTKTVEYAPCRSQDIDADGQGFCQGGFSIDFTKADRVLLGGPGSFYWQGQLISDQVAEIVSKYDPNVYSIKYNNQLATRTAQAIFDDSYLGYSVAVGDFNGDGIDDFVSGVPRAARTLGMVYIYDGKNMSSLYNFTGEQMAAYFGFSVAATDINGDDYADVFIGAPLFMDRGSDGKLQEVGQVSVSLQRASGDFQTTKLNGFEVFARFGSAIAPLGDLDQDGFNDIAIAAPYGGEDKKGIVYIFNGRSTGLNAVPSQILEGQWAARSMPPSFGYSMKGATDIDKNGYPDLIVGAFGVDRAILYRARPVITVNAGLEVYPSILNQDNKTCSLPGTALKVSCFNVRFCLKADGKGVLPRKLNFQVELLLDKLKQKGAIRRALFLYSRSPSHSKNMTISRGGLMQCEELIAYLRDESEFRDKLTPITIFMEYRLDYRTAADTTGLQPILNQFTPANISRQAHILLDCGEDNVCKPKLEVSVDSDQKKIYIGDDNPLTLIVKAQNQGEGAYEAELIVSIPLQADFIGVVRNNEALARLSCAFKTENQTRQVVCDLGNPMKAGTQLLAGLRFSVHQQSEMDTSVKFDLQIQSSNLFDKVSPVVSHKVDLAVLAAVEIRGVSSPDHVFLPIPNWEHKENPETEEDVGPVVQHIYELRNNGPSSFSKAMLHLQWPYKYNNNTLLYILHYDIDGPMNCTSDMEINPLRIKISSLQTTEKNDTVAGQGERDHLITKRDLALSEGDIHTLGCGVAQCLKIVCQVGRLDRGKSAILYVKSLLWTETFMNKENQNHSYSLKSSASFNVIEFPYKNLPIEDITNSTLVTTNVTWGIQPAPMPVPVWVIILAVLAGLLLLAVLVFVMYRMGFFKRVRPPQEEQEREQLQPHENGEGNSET
T1 chain 2: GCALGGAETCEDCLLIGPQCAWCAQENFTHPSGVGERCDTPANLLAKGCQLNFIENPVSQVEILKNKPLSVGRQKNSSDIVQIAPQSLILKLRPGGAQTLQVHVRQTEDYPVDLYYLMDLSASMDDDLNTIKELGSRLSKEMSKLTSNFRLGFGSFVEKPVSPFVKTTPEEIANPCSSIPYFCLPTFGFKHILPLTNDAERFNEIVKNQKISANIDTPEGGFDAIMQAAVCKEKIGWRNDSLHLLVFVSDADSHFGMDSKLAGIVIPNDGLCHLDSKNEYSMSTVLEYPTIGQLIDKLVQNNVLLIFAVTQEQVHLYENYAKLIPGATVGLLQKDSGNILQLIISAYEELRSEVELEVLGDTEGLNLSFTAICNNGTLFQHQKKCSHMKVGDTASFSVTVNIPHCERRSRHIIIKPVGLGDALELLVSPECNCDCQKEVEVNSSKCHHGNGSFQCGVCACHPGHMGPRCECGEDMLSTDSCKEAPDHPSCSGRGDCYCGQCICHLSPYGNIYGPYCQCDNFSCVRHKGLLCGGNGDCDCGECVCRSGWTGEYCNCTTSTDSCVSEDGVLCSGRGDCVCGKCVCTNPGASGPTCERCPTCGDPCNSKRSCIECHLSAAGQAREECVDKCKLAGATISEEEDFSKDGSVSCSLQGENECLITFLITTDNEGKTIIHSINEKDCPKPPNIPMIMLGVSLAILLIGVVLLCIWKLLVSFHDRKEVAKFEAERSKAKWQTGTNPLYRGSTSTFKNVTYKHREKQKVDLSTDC

[2] = target: T2, cyno αvβ6 on 293F:cynoβ6 cells (human;Macaca fascicularis, UniProt P06756 31-1048; A0A2K5TZ36 22-787); assay: competition binding on 293F cells
T2 chain 1: T1 chain 1
T2 chain 2: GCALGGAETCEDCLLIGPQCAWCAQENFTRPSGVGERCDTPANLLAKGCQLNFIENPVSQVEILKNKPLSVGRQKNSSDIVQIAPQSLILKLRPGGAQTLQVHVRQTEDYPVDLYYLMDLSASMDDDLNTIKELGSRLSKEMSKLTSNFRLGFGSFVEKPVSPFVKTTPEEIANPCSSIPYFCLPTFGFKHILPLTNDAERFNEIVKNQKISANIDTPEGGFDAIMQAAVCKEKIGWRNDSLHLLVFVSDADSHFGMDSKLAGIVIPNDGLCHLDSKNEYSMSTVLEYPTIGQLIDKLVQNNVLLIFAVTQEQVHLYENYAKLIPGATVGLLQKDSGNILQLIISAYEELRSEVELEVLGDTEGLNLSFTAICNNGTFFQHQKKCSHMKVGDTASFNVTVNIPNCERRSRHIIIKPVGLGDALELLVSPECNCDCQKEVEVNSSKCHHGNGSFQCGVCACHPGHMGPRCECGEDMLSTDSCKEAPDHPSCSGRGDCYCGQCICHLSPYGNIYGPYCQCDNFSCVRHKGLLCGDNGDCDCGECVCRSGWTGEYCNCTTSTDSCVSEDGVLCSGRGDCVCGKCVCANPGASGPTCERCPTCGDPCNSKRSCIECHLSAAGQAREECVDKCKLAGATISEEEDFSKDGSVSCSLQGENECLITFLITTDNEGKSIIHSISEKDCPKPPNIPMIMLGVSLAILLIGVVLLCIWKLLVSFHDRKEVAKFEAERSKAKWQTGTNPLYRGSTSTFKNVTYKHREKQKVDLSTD

[3] = target: T1, human αvβ6 on 293F:huβ6 cells; assay: competition binding on 293F cells; 2nM m2A2-AF647 competitor

EC50 [1]: 3 nM
EC50 [2]: 3 nM
EC50 [3]: 1 nM
B1: h2A2 HCLG humanized antibody (antibody, human IgG1, kappa, V domains shown)
VH: QFQLVQSGAEVKKPGASVKVSCKASGYSFTDYNVNWVRQAPGQGLEWIGVINPKYGTTRYNQKFKGRATLTVDKSTSTAYMELSSLRSEDTAVYYCTRGLNAWDYWGQGTLVTVSS
VL: DIQMTQSPSSLSASVGDRVTITCGASENIYGALNWYQQKPGKAPKLLIYGATNLEDGVPSRFSGSGSGRDYTFTISSLQPEDIATYYCQNVLTTPYTFGQGTKLEIKR
notes: Labelled with AlexaFluor-647 in the saturation assay; also called humanized 2A2 HCLG
